Source: US20080146500A1, “Selective Vpac2 Receptor Peptide Agonists” (priority 2004, published 2008)
Positions count from the first letter of the chain named. Ends that are not written are not given here. * marks the point of attachment. Hexanoyl = CCCCCC(=O)*

T1: human PAC1 (Homo sapiens, UniProt P41586)
T1 construct: expressed in transfected cells
T1 sequence (P41586 21-468): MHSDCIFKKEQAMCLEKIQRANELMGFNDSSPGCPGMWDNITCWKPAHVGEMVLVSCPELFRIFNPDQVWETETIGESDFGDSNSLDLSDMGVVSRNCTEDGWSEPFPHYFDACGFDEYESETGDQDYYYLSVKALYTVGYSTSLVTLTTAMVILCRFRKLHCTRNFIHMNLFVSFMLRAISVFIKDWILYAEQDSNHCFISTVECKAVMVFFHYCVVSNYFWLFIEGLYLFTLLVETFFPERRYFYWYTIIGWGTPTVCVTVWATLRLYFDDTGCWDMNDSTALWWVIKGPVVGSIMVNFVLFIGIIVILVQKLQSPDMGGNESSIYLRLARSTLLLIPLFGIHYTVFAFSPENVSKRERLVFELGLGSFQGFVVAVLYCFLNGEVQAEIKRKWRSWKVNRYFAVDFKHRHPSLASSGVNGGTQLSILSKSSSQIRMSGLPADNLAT

T2: human VPAC1 (Homo sapiens, UniProt P32241)
T2 construct: expressed in transfected cells
T2 sequence (P32241 31-457): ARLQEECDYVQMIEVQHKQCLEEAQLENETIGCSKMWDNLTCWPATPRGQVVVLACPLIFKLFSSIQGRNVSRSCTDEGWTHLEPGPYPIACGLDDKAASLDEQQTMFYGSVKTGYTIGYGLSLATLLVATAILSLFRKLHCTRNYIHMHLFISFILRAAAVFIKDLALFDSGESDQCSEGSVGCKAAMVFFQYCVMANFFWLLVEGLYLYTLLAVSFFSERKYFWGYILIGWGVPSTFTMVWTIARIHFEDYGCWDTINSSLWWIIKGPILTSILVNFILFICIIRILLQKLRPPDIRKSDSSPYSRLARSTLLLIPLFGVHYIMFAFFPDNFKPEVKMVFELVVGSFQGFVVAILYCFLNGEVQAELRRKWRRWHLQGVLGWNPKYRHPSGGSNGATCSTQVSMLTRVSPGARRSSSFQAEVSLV

T3: human VPAC2 receptor (human), P41587
T3 chain: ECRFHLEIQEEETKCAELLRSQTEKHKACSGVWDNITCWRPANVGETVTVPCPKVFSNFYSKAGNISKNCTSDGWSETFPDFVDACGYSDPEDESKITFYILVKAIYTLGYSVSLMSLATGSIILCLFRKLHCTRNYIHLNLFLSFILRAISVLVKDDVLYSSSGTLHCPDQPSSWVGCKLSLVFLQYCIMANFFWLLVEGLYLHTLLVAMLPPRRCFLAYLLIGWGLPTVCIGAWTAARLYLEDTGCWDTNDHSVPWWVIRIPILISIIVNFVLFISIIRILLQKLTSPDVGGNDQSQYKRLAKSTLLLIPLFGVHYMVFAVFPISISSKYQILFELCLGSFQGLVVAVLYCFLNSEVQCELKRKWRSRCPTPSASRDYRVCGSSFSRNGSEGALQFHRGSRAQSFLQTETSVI

T4: human VPAC1 receptor (human), P32241
T4 chain: T2 sequence (P32241 31-457)

T5: rat VPAC1 receptor (rat), P30083
T5 chain: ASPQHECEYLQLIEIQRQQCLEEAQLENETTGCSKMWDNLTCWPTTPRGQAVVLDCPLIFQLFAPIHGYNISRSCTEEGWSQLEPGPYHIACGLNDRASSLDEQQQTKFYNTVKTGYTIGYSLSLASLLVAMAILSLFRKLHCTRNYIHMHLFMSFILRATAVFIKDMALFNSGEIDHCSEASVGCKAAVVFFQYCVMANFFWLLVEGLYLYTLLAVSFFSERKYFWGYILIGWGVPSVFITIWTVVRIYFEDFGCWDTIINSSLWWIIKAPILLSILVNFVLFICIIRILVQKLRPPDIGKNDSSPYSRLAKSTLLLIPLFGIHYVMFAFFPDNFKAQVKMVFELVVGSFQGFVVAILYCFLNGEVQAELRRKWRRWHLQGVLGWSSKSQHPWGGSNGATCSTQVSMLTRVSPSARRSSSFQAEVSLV

T6: rat VPAC2 receptor (rat), P35000
T6 chain: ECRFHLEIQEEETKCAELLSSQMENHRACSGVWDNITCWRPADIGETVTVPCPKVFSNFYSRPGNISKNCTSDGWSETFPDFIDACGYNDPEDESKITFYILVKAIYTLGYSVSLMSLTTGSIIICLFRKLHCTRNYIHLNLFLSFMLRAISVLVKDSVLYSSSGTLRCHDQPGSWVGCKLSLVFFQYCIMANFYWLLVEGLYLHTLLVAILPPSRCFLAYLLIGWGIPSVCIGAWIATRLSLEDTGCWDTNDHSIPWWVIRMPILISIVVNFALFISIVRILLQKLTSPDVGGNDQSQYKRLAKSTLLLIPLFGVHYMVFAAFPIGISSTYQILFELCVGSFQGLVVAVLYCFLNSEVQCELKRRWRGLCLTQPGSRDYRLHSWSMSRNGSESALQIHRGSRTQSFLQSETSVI

T7: human VPAC2 receptor (human, UniProt P41587 24-438)
T7 construct: whole, on cells
T7 sequence (looked up): T3 chain

B1: P219 (peptide)
peptide: HSDAVFTDNYTRLRRQVAAKRYLQSIRNGGPSSGAPPPS
modifications: not checked
B2: P245 (peptide)
peptide: B1 peptide with R15K, K20R
modifications: not checked
B3: P247 (peptide)
peptide: B1 peptide with K20R, R21K
modifications: not checked
B4: P137 (peptide)
peptide: HSDAVFTDNYTRLRKQVAAKKYLQSIKNKRYGGPSSGAPPPC
modifications: not checked
B5: P190 (peptide)
peptide: Hexanoyl-HSDAVFTDNYTRLLAKLALQKYLQSIKNKRYGGPSSGAPPPC(PEG 40 kDa)
notes: T0013 drops Thr 11 (print error); also called PEGylated P164

Columns and labels:
Normal Wistar rats = assay: Intravenous glucose tolerance test (IVGTT), serum glucose and insulin; assay type: in vivo, rat; details: Dose = 10 μg/kg iv, time between glucose & compound 0 h
Protocol: Intravenous glucose tolerance test (IVGTT): Normal Wistar rats are fasted overnight and are anesthetized prior to the experiment. A blood sampling catheter is inserted into the rats. The compound is given in the jugular vein. Blood samples are taken from the carotid artery. A blood sample is drawn immediately prior to the injection of glucose along with the compound. After the initial blood sample, glucose mixed with compound is injected intravenously (i.v.). Compound may also be injected intravenously or subcutaneously prior to the glucose challenge. A glucose challenge of 0.5 g/kg body weight is given, injecting a total of 1.5 mL vehicle with glucose and agonist per kg body weight. The peptide concentrations are varied to produce the desired dose in μg/kg. Blood samples are drawn at 2, 4, 6 and 10 minutes after giving glucose. The control group of animals receives the same vehicle along with glucose, but with no compound added. In some instances, a 30 minute post-glucose blood sample is drawn. Aprotinin is added to the blood sample (250-500 kIU/ml blood). The serum is then analyzed for glucose and insulin using standard methodologies.
The assay uses a formulated and calibrated peptide stock in PBS. Normally, this stock is a prediluted 100 μM stock. However, a more concentrated stock with approximately 1 mg agonist per 1 mL is used. The specific concentration is always known. Variability in the maximal response is mostly due to variability in the vehicle dose.

human PAC1 = target: T1, human PAC1; assay: Filter binding assay, membranes from cells transiently transfected with human PAC1, 125I-labeled PACAP-27 tracer; details: read-out: Human receptor binding (IC50; nM) PAC1
Protocol: (§1) For this assay, the solutions and equipment include:
(§2) Presoak solution: 0.5% Polyethyleneamine in Aqua dest.
(§3) Buffer for flushing filter plates: 25 mM HEPES pH 7.4
(§4) Blocking buffer: 25 mM HEPES pH 7.4; 0.2% protease free BSA
(§5) Assay buffer: 25 mM HEPES pH 7.4; 0.5% protease free BSA
(§6) Dilution and assay plate: PS-Microplate, U form
(§7) Filtration Plate Multiscreen FB Opaque Plate; […] Type B Glasfiber filter
(§8) In order to prepare the filter plates, the presoak solution is aspirated by vacuum filtration. The plates are flushed twice with 200 μL flush buffer. 200 μL blocking buffer is added to the filter plate. The filter plate is then incubated with 200 μL presoak solution for 1 hour at room temperature.
(§9) The assay plate is filled with […] (2.5 μg) suspended in assay buffer, 25 μL compound (agonist) in assay buffer, and 25 μL tracer (about 40000 cpm) in assay buffer. The filled plate is incubated for 1 hour with shaking.
(§10) The transfer from assay plate to filter plate is conducted. The blocking buffer is aspirated by vacuum filtration and washed two times with flush buffer. 90 μL is transferred from the assay plate to the filter plate. The 90 μL transferred from assay plate is aspirated and washed three times with 200 μL flush buffer. The plastic support is removed. It is dried for 1 hour at 60° C. 30 μL Microscint is added. The count is performed.
(§11) Values reported are single results or the mean of two or more independent runs.

human VPAC1 = target: T2, human VPAC1; assay: Filter binding assay, membranes from cells transiently transfected with human VPAC1, 125I-labeled VIP tracer; details: read-out: Human receptor binding (IC50; nM) VPAC1
Protocol: as §1, §2, §3, §4, §5, §6, §7, §8, §9, §10, §11

[1] = target: T3, human VPAC2 receptor (human), P41587; assay: filter binding, VPAC2 membranes, 125I-VIP tracer
[2] = target: T3, human VPAC2 receptor (human), P41587; assay: cell-based or functional assay
[3] = target: T4, human VPAC1 receptor (human), P32241; assay: filter binding, VPAC1 membranes, 125I-VIP tracer
[4] = target: T5, rat VPAC1 receptor (rat), P30083; assay: cell-based or functional assay
[5] = target: T6, rat VPAC2 receptor (rat), P35000; assay: cell-based or functional assay
human VPAC2 receptor [6] = target: T7, human VPAC2 receptor; assay: filter binding, VPAC2 membranes, 125I-VIP tracer
Protocol: The assay plate is filled with 25 mL assay buffer, 25 mL membranes (2.5 μg) suspended in assay buffer, 25 μL compound (agonist) in assay buffer, and 25 μL tracer (about 40000 cpm) in assay buffer. The filled plate is incubated for 1 hour with shaking.

human VPAC2 receptor [7] = target: T7, human VPAC2 receptor; assay: cell-based or functional assay

Molecule	IC50 [1] [nM]	cAMP generation (EC50), Alpha screen [2] [nM]	other results
C6-HSDAVFTDNYTRLLAKLALQKYLQSIKNKRYGGPSSGAPPPC(PEG40K) (Hexanoyl-HSDAVFTDNYTRLLAKLALQKYLQSIKNKRYGGPSSGAPPPC(PEG 40 kDa)) [Agonist P190, PEGylated peptide obtained from P164 and methoxy-PEG2-MAL-40K]	–	–	% increase AUC (insulin, 0-10 min after glucose) (Normal Wistar rats): +73%; IC50 (human PAC1): > 25000 nM; IC50 (human VPAC1): > 3000 nM
B1	67.9	25.5	–
B2	921	450	–
B3	353	133	–
B4	0.64	8.31	IC50 [3]: 853 nM; cAMP generation (EC50), DiscoveRx, CHO-PO cells [4]: 29.7 nM; cAMP generation (EC50), DiscoveRx, CHO-PO cells [5]: 8 nM
B5	–	–	IC50 (human VPAC2 receptor [6]): 4.44 nM; cAMP generation (EC50), Alpha screen (human VPAC2 receptor [7]): 2.14 nM
